Results as given in patent publication US20240254224A1 (UCB, published 2024).

What was measured:
Assay in all cases: SPR (Biacore T200), TREM1 ECD over antibody captured by anti-human Fc
[1] = biological target: T1, marmoset TREM1 ECD (in house, His tagged) (marmoset, UniProt A0A8I3WDM5 21-206)
T1 construct: extracellular domain
T1 sequence: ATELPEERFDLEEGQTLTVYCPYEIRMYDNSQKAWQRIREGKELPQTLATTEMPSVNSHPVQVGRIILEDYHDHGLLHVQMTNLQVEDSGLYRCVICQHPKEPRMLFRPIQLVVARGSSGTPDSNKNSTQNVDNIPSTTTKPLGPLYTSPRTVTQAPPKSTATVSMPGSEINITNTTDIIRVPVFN
Method: (§1) The species tested were human, cynomolgus, rhesus, marmoset, rat, mouse, dog and pig.
(§2) TREM1 ECD analyte (in house, His tagged) was injected at 3-fold serial dilutions in HBS-EP+ running buffer (GE Healthcare), top concentrations are shown in Table 15, and three-fold serial dilutions were performed to a bottom concentration of 2 nM. Buffer blank injections were included to subtract instrument noise and drift.

[2] = biological target: T2, mouse TREM1 ECD (in house, His tagged) (mouse, UniProt Q9JKE2 21-202)
T2 construct: extracellular domain
T2 sequence (looked up): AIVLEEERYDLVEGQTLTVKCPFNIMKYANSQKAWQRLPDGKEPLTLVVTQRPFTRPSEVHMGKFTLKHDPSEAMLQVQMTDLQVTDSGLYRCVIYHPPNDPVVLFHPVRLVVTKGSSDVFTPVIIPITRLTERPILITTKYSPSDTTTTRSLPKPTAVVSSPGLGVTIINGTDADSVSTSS
Method: as §1, §2

[3] = biological target: T3, pig TREM1 ECD (in house, His tagged) (pig, UniProt Q6TYI6 21-210)
T3 construct: extracellular domain
T3 sequence (looked up): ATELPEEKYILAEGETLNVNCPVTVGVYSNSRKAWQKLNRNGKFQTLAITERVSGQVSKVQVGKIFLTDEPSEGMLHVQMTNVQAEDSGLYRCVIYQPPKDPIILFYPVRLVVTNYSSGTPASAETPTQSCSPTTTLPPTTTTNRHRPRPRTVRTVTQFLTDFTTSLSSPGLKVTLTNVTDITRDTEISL
Method: as §1, §2

- binding result [1]: no binding (tested: 510 nM)
- binding result [2]: no binding (tested: 520 nM)
- binding result [3]: no binding (tested: 490 nM)
B1: 12172 gL2gH11 hIgG4P (antibody)
heavy: not shown
light: DIQLTQSPSFLSASVGDRVTITCQASQNIGSDLAWYQQKPGKAPKLLIYKAATLASGVPSRFSGSGSGTEFTLTISSLQPEDFATYYCQQYYYGSAGADTDTFGGGTKVEIKRTVAAPSVFIFPPSDEQLKSGTASVVCLLNNFYPREAKVQWKVDNALQSGNSQESVTEQDSKDSTYSLSSTLTLSKADYEKHKVYACEVTHQGLSSPVTKSFNRGEC
notes: Humanised IgG4P, human kappa; also called 12172gL2gH11 IgG4P
